According to the supplement of paper PMC9170038:

Tested on: K4 kissing-loop RNA reporter
Experiment: apparent KD of K4 kissing-loop reporter; higher = weaker reporter binding
Settings: Eterna round: R107
Method: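 RNA-MaP round R107: designed RNA switches with theophylline, tryptophan, arginine or FMN aptamers are transcribed on-chip within common flanks. They are titrated with a labelled K4 kissing-loop RNA reporter in RNA-MaP buffer (100 mM Tris pH 7.5, 80 mM KCl, 4 mM MgCl2), without ligand or with the indicated ligand. Median apparent KD per design.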

[1] = input ligand: theophylline 20 uM
[2] = input ligand: tryptophan 2.4 mM
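Further: bound reporter read as fluorescence of individual clusters on recovered sequencing chips by microscopy, with normalized cluster intensities fitted with a binding model.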

Sequence | apparent KD of K4 kissing-loop reporter (input ligand: FMN 200 uM) [nM] | apparent KD of K4 kissing-loop reporter (input ligand: arginine 13.2 mM) [nM] | apparent KD of K4 kissing-loop reporter (input ligand: none) [nM] | apparent KD of K4 kissing-loop reporter [1] [nM] | apparent KD of K4 kissing-loop reporter [2] [nM]
GGUGCGGGCUCGGCCGCCACUCCCGCGGGUCGUAAGGUCCGCUACUGAGUGAUGUUCGGUUGGAGGAGGACCGGGAGCCCGUGCC [#2 Exclusion - Tryptophan B Attempt #19 (HarryS)] | 115 | 113 | 106 | 85.3 | 106
GGUUCCUCAGUGAUGUUGAGGUGACCUCGGCAGGAUAUAGGCAUUACUAGAAGGGCCAAAAGAACCCUGUCCAGCGACACAGGGU [Inatinar] | 157 | 304 | 310 | 259 | 265
GGUUGCAGCCCUGCAUCGUGGGUUUAGAGUAAGGAUAUUCGCCAAGGAAGAAGGUACUCUGCAUUGAGUGAUGUUCAAUAAGAUG [theeternabot_sameState_KL_FMN_A_30] | 109 | 176 | 146 | 166 | 104
GUACCUUGGAAACAAGGACAGAUAACCGAAGGAGCGCGUGAAAACGCAGGUAGGUCGCGGAAGCAGUGAUGUUGCAAAAGAGAGC [Same State Arginine A GF 17] | 168 | 188 | 125 | 228 | 111
GUACGCUUCCGAGUGAUGUUCGGUAAUAGUUAGGAUAUCGCUUUUGCGAGAAGGAACUGAAUGAGGAAACUCGUUCGAAGUGUAC [FMN A 17] | 406 | 336 | 540 | 396 | 459
GUAGCACUCGAUAGUGAUGUUAUCGAGGGCAAGGAUAUCACCUCAGUGAGAAGGUGUCCUUGAUAACUGCUACGGGAAUAUCCCA [Omei KL FMN A Exc D v8] | 270 | 90.9 | 101 | 106 | 99.6
GUAGCACUUGAUAGUGAUGUUAGCAAGGGCAAGGAUAUCAUCUCAAUGAGAAGGUGUCCUUGCUAACAGCUACGGGAAUAUCCCA [Omei KL FMN A Exc D v5] | 173 | 424 | 577 | 579 | 630
GUAGCUAAAGAAGGAUAUCGGAUCCAAAUCAAGCAGUGAUGUUGCGUGAAGAUCGGCUCCAUGCCGCGAGAAGGUCUUUUCUGUU [theeternabot_sameState_KL_FMN_B_18] | 179 | 305 | 207 | 284 | 147
GUAGCUUGGCUAGGAUAUUAGCGUAGGAGUGAUGUUCCGACUAGCGAAAGCUAGUCUCACGCUAGUUAAGAAGGAGCCAAGCUAC | 263 | 172 | 175 | 181 | 174
GUAGGAUGAGGAGGAGGAUGAAUUACUGAAGGAGCGCAUAUUUAUGCAGGUAGGUCGCGGUAAAGAAGUAUAGUGAUGUUAUAUA [SSArgA.I] | 410 | 343 | 264 | 479 | 246
GUAGUCGUACCUUCAGUGAUGUUGAAGGAUACCAGAUGUUACCACAUCCCUUGGCAGCCUUGGGAUAACAGUGAGUUGGAAUAUG [Soonusa] | 161 | 127 | 159 | 138 | 160
GUAGUGAUGUUACGAAUAUUCCAUCAUAGAGAGGAUAUUGUUCCUUCGAGAAGGUUCUGAGAAUUAAAAUUUAAUAAAAUGAAGG [Exclusion FMN A GF 1] | 246 | 302 | 277 | 357 | 160
GUAGUGAUGUUACGAGUAUUCCAUCGUAGAGAGGAUAUGGUUCCUUCCAGAAGGUUCUGAGAAUUAAAAUUUGAUAAAAUGAGGG [Exclusion FMN A GF 2] | 304 | 251 | 390 | 392 | 252
GUAUCGCUAGGAGGAUAUUCCAAUCCGCCUAUAAUAGGUGGUACGGAGUGAUGUUCCGAUUUACGGGAAGAAGGCCUAGUGAUAC [FMN B 17] | 155 | 318 | 302 | 381 | 346
GUAUCGCUAGGAGGAUAUUCCAUUUUACAUAUAAAUGGAUAUGCGGAGUGAUGUUCCGAUUUACGGGAAGAAGGCCUAGUGAUAC [FMN B 20] | 138 | 220 | 219 | 256 | 208
GUAUCGCUAGGAGGAUAUUUCAAAUAACAAAUAAAUGGUUAUACGGAGUGAUGUUCCGAUUUACGGAAAGAAGGCCUAGUGAUAC [FMN B 4] | 112 | 203 | 210 | 218 | 203
GUAUGUGGAAACACGUACUUAUAUCCUAGGCAGGAUAUGCGGAAACGCAGAAGGGCCACCGGCGAGAAAAUCCAGUGAUGUUGGA [Ex FMN A 7] | 260 | 248 | 244 | 238 | 249
GUAUGUGGAAACACGUACUUGUAUCCUAAGCAGGAUAUGCGGAAACGCAGAAGGGCUACCAACGAGUUUAUCCAGUGAUGUUGGA [Ex FMN A 13] | 507 | 298 | 332 | 393 | 455
